Target: histone H3 tail symmetrically dimethylated on R2 and trimethylated on K4 (H3R2me2sK4me3)
Test: fluorescence polarisation

Which fold increase in binding affinity against H3K4me3 alone does the source give for PHD finger of RAG2 (domain or fragment) here?
Its fold increase in binding affinity against H3K4me3 alone is 20 fold.

From PMC3377377
